Tests used:
Settings in all cases: ligand 5 micrograms per well; dilutions of initial fusion protein solution; FIG. 7
[1] = biological target: T1, amyloid-beta (Amyloid Beta (1-40)) (Homo sapiens, UniProt P05067); assay: In vitro ligand binding assay (ELISA), immobilized amyloid-beta
T1 construct: Amyloid Beta (1-40) from Biosource; purchased Biosource
Description: (§1) For example, the fusion protein may be used in a binding assay to identify potential ligands that bind to the non-immunoglobulin protein. In one example embodiment of such a binding assay, a known ligand may coated onto a solid substrate (e.g., Maxisorb plates) at a biologically relevant concentration (e.g., about 5 micrograms per well), where each well contains a total volume of about 100 microliters (μL). The plates may be incubated at 4° C. overnight to allow the ligand to bind to the substrate. Alternatively, shorter incubation periods at higher temperature (e.g., room temperature) may be used. After a period of time to allow for the ligand to bind to the substrate, the assay wells may be aspirated and a blocking buffer (e.g., 1% BSA in 50 mM imidizole buffer, pH 7.2) may be added to block nonspecific binding. […] The fusion protein bound to the immobilized ligand may be detected in a variety of ways. […] The bound complex may be detected by adding a substrate for the secondary antibody complex, e.g., the alkaline phosphatase substrate, para-nitrophenylphosphate (PNPP), and measuring conversion of PNPP to para-nitrophenol (PNP) as an increase in absorbance at 405 nm. […] In the absence of ligand (i.e., coating with only BSA) there was no increase in absorbance. The binding assay of the present invention may be used to quantify ligand binding. […]

[2] = biological target: T2, amphoterin (Homo sapiens, UniProt P09429); assay: In vitro ligand binding assay (ELISA), immobilized amphoterin
T2 sequence (P09429 1-215): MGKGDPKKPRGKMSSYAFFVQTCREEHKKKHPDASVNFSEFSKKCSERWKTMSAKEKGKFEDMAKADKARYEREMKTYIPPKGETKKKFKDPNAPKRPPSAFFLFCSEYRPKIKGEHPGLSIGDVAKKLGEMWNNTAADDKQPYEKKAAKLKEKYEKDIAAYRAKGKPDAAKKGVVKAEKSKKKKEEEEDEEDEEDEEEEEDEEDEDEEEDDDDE
Description: as §1

[3] = biological target: T3, S100b (Homo sapiens, UniProt P04271); assay: In vitro ligand binding assay (ELISA), immobilized S100b
T3 sequence (P04271 1-92): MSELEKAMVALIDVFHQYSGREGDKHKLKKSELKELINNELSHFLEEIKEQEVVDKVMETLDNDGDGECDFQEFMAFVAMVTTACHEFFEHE
Description: as §1

T1 sequence (P05067 672-711 limits assumed): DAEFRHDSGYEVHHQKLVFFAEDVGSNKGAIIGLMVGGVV

B1: TTP-3000: RAGE fusion protein: V domain of human RAGE (amino acids 1-136) linked to hinge-less CH2 and CH3 of human IgG1; SEQ ID NO: 17/19 (protein)
chain 1: MAAGTAVGAWVLVLSLWGAVVGAQNITARIGEPLVLKCKGAPKKPPQRLEWKLNTGRTEAWKVLSPQGGGPWDSVARVLPNGSLFLPAVGIQDEGIFRCQAMNRNGKETKSNYRVRVYQIPGKPEIVDSASELTAGPSVFLFPPKPKDTLMISRTPEVTCVVVDVSHEDPEVKFNWYVDGVEVHNAKTKPREEQYNSTYRVVSVLTVLHQDWLNGKEYKCKVSNKALPAPIEKTISKAKGQPREPQVYTLPPSRDELTKNQVSLTCLVKGFYPSDIAVEWESNGQPENNYKTTPPVLDSDGSFFLYSKLTVDKSRWQQGNVFSCSVMHEALHNHYTQKSLSLSPGK
chain 2: ENITARIGEPLVLKCKGAPKKPPQRLEWKLNTGRTEAWKVLSPQGGGPWDSVARVLPNGSLFLPAVGIQDEGIFRCQAMNRNGKETKSNYRVRVYQIPGKPEIVDSASELTAGPSVFLFPPKPKDTLMISRTPEVTCVVVDVSHEDPEVKFNWYVDGVEVHNAKTKPREEQYNSTYRVVSVLTVLHQDWLNGKEYKCKVSNKALPAPIEKTISKAKGQPREPQVYTLPPSRDELTKNQVSLTCLVKGFYPSDIAVEWESNGQPENNYKTTPPVLDSDGSFFLYSKLTVDKSRWQQGNVFSCSVMHEALHNHYTQKSLSLSPGK
modifications: synthetic three domain RAGE-Fc IgG fusion protein; synthetic three domain RAGE-Fc IgG fusion protein having signal sequence removed
specifically interact: binding to immobilized amyloid-beta (increase in absorbance at 405 nm) [1] | binding to immobilized amphoterin (increase in absorbance at 405 nm) [2] | binding to immobilized S100b (increase in absorbance at 405 nm) [3]
